Measurements from the nanobody polyreactivity screen of Harvey et al. (2022).

Assay: yeast display, Sf9 membrane polyspecificity reagent, FACS + sequencing; frameworks hold sequencing errors
In short: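 Sorting gates, low and high (top ~1%), were placed on anti-HA fluorescence to track expression and on streptavidin fluorescence to track reagent binding. A clone's polyreactivity label is taken from the gate it came out of. The reagent was 10% biotinylated, detergent-solubilized Sf9 membrane, applied for 1 hour at 4 °C to galactose-induced yeast display cells.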

Sequence | polyreactivity (PSR sort gate)
QVQLVESGGGLVQAGCSLRLSCAASGFTFTTYAMGWYRQSPGKERELVAAISRSTGSTYYADSVKGRFTISRDNAKNTVYLKMNSMKPEDTAVYYCNTVFPNGYLSKYYYWGQGTKVTVSS | high polyreactivity
QVQLVESGGGLVQAGCSLRLSCAASGITFVGYAMGWYRQAPGKERELVAAISSSGGSTYYADSVKGRFTISRDNAKNTVYLQMNSLKPEDTAVYYCAKRRWWQKSLYDYWGQGTQVTVSS | high polyreactivity
QVQLVESGGGLVQAGCSLRLSCAASGLIFAVYTMGWYRQAPGKERELVAAITRRSTRTYYADSVKGRFTNSRDNAKNTVYLQMNSLKPEDTAVYYCAADRGSSGAAFEYWGQGTQVTVSS | low polyreactivity
QVQLVESGGGLVQAGCSLRLSCAASGLIFSKNVMGWYRQAPGKERELVAAISQRGGSTYYADSVKGRFTISRDNAKNTVYLQMNSLKPEDTAVYYCAADNSVSHEDYWGQGTQVTVSS | high polyreactivity
QVQLVESGGGLVQAGCSLRLSCAASGLTLRHYAMGWYRQSPGKERELVAAISWNTGSTYYADSVKGRFTISRDNAKNTVYLQMNSLKPEDTAVYYCAAVPRAYYQGLYYWGQCTQVTVSS | high polyreactivity
QVQLVESGGGLVQAGCSLRLSCAASGNTFGYYAMGWYRQAPGKERELVAAITSSGGRTYYADSVKGRFTISRDNAKNTVYLQMNSLKPEDTAVYYCAAGRVGARYPTYRFYYWGQGTLVTVSS | high polyreactivity
QVQLVESGGGLVQAGCSLRLSCAASGRIFNWYGMGWYRQAPGKERELVAGITYSASRTYYADSVKGRFTISRDNAKNTVYLQMNSLKPEDTAVYYCAAGRYHRDDGYDYWGQGTQVTVSS | low polyreactivity
QVQLVESGGGLVQAGCSLRLSCAASGRIFRRYAMGWYRQAPGKERELVAAITSGGGSTYYADSVKGRFTISRDNAKNTVYLQMNSLKPEDTAVYYCNKSSWEFVKGKYGYWGQGTQVTVSS | low polyreactivity
QVQLVESGGGLVQAGCSLRLSCAASGRIFWDNAMGWYRQAPGKERELVAAIDYRGGNTNYADSVKGRFTISRDNAKNTVYLQMNSLKPEDTAVYYCNAEWAVRYPGYDYWGQGTQVTVSS | low polyreactivity
QVQLVESGGGLVQAGCSLRLSCAASGRTFARYAMGWSRQAPGKVRELVAGISRSGDSTHYADSVKGRFTISRDNAKNTVYLQMNSRKPEDTSVYYCHKETPTIGARKYEYWGQGTQVTVSS | low polyreactivity
QVQLVESGGGLVQAGCSLRLSCAASGRTFDDYAMGWYRQAPGKERELVAAISSRCGSTYYADSVKGRFTISRDNAKNSVYLQMNSLKPEDTAVYYCNTLQSSHGSSQYDSWGQGTQVTVSS | low polyreactivity
QVQLVESGGGLVQAGCSLRLSCAASGRTFRYYAMGWYRQAPGKERELVAAISWRGGSTYYADSVKGRFTISRDNAKNTVYLQMNSLKPEDTAVYYCAAGILFGHYDYWGQGTQVTVSS | high polyreactivity
QVQLVESGGGLVQAGCSLRLSCAASGRTFSKYTMGWYRQAPGKERELVAAISGSGGSTYYADSVKGRFTISRDNAKNTVYLQMNSLKPEDTAVYYCAAEDEYNWYDDYFYTFDYWGQGTQVTVSS | low polyreactivity
QVQLVESGGGLVQAGCSLRLSCAASGSIFDDYAMGWNRQAPGKERELVAAISSSGTSTYYADSVKGRFTISRDNAKNTVYLQMNSLKPEVTAVYYCAARSAILKSGYLMDYWGQGTHVTVSS | low polyreactivity
QVQLVESGGGLVQAGCSLRLSCAASGSIFGYNAMGWYRQAPGKERELVAAITGSGGSTYYADSVKGRFTISRDNAKNTVYLQMNSLKPEDTAVYYCADDLFGGPLGYWDYDYWGQGTQVTVSS | low polyreactivity
QVQLVESGGGLVQAGCSLRLSCAASGSIFRYYAMGWYRQAPGKERELVAAITSSGGSTYYADSVKGRFTISRDNSKNTVYLQMNSLKPEDTAVYYCNARHVRYSRRENDYWGQGTQVTVSS | high polyreactivity

Sequence | polyreactivity (PSR sort gate)
QVQLVESGGGLVQAGCSLRLSCAASGSTFFFNAMGWYRQAPGKERELVAAITGRCGSTYYADSVKGRFTISRDNAKNTVYLQMNSLIPEDTAVYYCAAEGVPYWSSRFWRYDYWGQGTQVTVSS | low polyreactivity
QVQLVESGGGLVQAGCSLRLSCAASGSTFGYYTMGWYRQAPGKERELVAAITRSGGSTYYADSVKGRFTISRDNAKNSVYLQMTSLKPEDTAVYYCAADDYWTTFGYWGLGTQVTVSS | low polyreactivity
QVQLVESGGGLVQAGCSLRLSCAASGSTFTTNAMGWYRQAPGKEREFVAAITSSGGSTYYADSVKGRFTISRDNAKNTVYLQMNSLKPEDNAVYYCNADGDPSQKLFGRSYDYWGQGTQVNVSS | low polyreactivity
QVQLVESGGGLVQAGCSLRLSCAASGSTFTYYAMGWYRQAPGKERESVAAISSNGGSTSYADSVKGRFTISRDNAKNTVYLQMNSLKPEDTAVYYCAARSKRLAHDYWGQGTQVTVSS | high polyreactivity
QVQLVESGGGLVQAGCSLRLSCAASGSTFYRYAMGWYRQAPGKERELVAAITSGTGTYYADSVKGRFTISRDNAKNTVYLQMNSLKPEDTAVYYCNARRYLRGYWGQGTQVTVSS | low polyreactivity
QVQLVESGGGLVQAGCSLRLSCAASGSTLSFNAMGWYRQAPGKERELVAGITYSGGSTYYADSVKGRFTISRDNAKNTVYLLMNSLKPEDTAFYYCNKACGVYYGHLDYWGQGTQVTVSS | low polyreactivity
QVQLVESGGGLVQAGCSLRLSCAASGYNLFAYAMGWYRQSPGKERELVATINTSGGITYYADSVNGRFTISRDIANNTVYLQMNSLKPEDTAVYYCAAADGGGLVTYYYWGQGTQVTVSS | low polyreactivity
QVQLVESGGGLVQAGCSLRLSCAATGSFFGFYSMGWYRQAPGKEMELVASITISGGSTYYADSVKGRFTISRDNAKNNVYLQMNSLKLEDTAVYFCAAETYAYLFHTYDYWGQGTHVTVSS | low polyreactivity
QVQLVESGGGLVQAGCSLRLSCASSGRIFYGNAMGWYRQAPGKERELVAAISKSGASTYYADSVKGRFTISRDNAKNTVYLQMNSLKPEDTAVYYCAAETPRRKYNYWGQGSQVTVSS | high polyreactivity
QVQLVESGGGLVQAGCSLRLSSAASGFTFGYYGMGWYRQAPGKERELVAAISQSSTDTYYADSVKGRFTISRDNAKNTVYLQMNSLKPEDTPVYYCAAHPTDSEYDDYEYWGQGTQVTVSS | low polyreactivity
QVQLVESGGGLVQAGCSLRLSWAASGNIFKGYAMGWSRQAPGKERELVAAISKSGGSTYYADSVKGRFTISRDNAKNTVYLQMNSLKPEDTAVYYCNTYTYAGYNFWGQGTQVTVSS | high polyreactivity
QVQLVESGGGLVQAGDSLRLSCGASGRTFYPYAMGWYRQAPGKERELVAAITWSGGSTYYADSVKGRFTISRDNAKNTVYLQMNSLKPEDTAVYFCNAAELTYDLYDYCGQGTQVTVSS | low polyreactivity
QVQLVESGGGLVQAGGCLRLSCAASGRIFTTNPMGWYRPAPGKERELVARITYSGTSTYYADSVKGRFTISRDNAMNTVYLQMNSLKPEDTAVYYCAAKVWWRKYQLLDYYYWGQGTQVTVSS | high polyreactivity
QVQLVESGGGLVQAGGCLRLSCAASGRILYYYAMGWYRQAPGKERELVAAINSSGGSTYYADSVKGRFTISRDNAKNTVYLQMNSLKPEDTAVFYCAALRGNVLWYPPSYFRYDYWGQGTQVTVSS | high polyreactivity
QVQLVESGGGLVQAGGCLRLSCAASGRTFPRYAMGWYIQAPGKVRELVAVISFSGDSTSYADSVKGRFTISRDTAKNTVYIQMNSRKPEDTAVYYCIADYKSTVFRYSGSRNYWGQGTQVTVSS | low polyreactivity
QVQLVESGGGLVQAGGCLRLSCAASGSIFCVYVMGWYRQEPVKERELVAAITRGASTNYADSVKGRFTISRDNAKNTVYLQMNSLKPEDTAVYYCAARQVSVSGHQYGYWGQGTQVTVSS | low polyreactivity
